Target: T1, α and γ ENaC (Rattus norvegicus, UniProt P37089+P37090+P37091)
T1 construct: expressed in transfected cells; host or cells: Xenopus oocytes (cRNA injection; with or without V5-SPLUNC1 and CAP2)
T1 sequence (P37089 1-698): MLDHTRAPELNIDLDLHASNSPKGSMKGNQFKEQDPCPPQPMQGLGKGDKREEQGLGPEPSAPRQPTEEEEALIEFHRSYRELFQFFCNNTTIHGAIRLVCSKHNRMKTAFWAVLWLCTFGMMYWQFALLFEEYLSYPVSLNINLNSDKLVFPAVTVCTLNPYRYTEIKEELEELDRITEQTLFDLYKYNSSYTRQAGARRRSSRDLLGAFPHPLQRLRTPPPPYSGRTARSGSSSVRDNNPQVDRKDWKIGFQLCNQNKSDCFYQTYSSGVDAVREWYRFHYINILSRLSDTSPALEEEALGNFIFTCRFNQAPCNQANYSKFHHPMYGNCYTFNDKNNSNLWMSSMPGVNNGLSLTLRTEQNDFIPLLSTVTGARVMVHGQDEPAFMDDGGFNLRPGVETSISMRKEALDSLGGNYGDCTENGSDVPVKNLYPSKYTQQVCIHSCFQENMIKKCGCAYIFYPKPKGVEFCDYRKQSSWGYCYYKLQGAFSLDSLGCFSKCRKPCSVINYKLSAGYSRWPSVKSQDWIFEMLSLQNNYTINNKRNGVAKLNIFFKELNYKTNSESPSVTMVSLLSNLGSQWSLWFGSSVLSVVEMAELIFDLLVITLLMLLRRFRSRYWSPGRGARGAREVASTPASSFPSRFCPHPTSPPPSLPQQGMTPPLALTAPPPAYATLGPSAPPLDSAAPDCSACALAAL
T1 sequence (P37090 1-638): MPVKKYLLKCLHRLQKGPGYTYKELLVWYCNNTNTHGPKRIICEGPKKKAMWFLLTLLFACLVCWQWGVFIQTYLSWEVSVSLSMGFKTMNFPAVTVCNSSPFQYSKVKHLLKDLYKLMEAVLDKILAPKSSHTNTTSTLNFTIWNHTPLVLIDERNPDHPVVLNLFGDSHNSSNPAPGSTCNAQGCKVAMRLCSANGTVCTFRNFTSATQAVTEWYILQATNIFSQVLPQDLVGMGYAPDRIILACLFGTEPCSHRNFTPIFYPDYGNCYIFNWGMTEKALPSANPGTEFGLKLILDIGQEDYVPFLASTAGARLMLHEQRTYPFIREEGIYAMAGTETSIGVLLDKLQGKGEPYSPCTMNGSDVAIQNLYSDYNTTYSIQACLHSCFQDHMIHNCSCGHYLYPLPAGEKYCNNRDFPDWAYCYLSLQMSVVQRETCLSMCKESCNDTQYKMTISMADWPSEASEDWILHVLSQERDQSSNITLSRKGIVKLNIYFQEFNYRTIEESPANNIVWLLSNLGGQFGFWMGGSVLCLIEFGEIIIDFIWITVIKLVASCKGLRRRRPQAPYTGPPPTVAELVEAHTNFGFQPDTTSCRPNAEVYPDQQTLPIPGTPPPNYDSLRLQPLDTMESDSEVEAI
T1 sequence (P37091 1-650): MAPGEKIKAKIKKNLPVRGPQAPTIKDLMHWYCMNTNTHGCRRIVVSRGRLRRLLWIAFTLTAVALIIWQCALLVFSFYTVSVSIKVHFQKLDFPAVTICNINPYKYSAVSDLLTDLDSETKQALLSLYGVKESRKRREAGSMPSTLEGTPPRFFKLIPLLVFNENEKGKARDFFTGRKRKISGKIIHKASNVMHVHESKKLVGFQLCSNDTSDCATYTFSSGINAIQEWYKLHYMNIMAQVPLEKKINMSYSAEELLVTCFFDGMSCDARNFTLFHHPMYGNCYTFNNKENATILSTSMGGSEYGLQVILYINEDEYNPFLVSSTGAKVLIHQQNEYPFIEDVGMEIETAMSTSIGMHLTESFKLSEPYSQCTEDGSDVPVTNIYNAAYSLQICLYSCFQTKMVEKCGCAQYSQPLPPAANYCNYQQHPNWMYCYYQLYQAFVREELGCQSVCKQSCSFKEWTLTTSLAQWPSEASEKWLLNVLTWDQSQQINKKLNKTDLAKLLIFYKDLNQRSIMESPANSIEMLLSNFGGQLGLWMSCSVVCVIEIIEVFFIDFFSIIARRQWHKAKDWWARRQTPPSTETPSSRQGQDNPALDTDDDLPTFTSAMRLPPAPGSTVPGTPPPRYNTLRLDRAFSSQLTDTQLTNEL
Assay: Western blot of ENaC cleavage by CAP2 in Xenopus oocytes
Type: cell-based
Details: αβγENaC, CAP2 and SPLUNC1 co-expressed in oocytes
Description: Xenopus oocytes were injected with either HA-N-Terminus or V5-C-Terminus (HA-NT/V5-CT) tagged subunits in combination with wild type (WT) untagged rat αβγENaC subunits (0.3 ng cRNA each) with or without V5-tagged SPLUNC1 and CAP2 (1 ng cRNA each). After 24 h, 40 eggs per experimental condition were lysed with buffer containing (in mM): 20 Tris, 50 NaCl, 50 NaF, 10 β-glycerophosphate, 5 Na4P2O7 pyrophosphate, 1 EDTA, pH 7.5 and protease inhibitors (complete, Roche), aprotinin (Sigma). Cell lysates were prepared by passing the eggs through a 27G1/2 needle twice and by centrifugation at 3,600 rpm for 10 minutes at 4° C. […]
Proteolytic cleavage of α and γ subunits is required for ENaC activation (Mueller et al., J. Biol. Chem. 282:33475 (2007); Adebamiro et al., J. Gen. Physiol. 130:611 (2007)) and since CAP2 is highly expressed in human bronchial epithelial cultures (Tarran et al., J. Gen. Physiol. 127:591 (2006)), we tested whether SPLUNC1 could alter α and γ ENaC cleavage by CAP2. Due to the relative scarcity of purified rSPLUNC1, we elected to co-express SPLUNC1 and ENaC rather than use rSPLUNC1 for subsequent oocyte studies since SPLUNC1 is secreted at sufficient quantities from oocytes to inhibit ENaC (FIG. 5). When αβγENaC and CAP2 were co-expressed in oocytes, both full-length ENaC subunits and cleaved α and γ fragments were detected with a V5 antibody (FIG. 7A, 7B). […]

B1: SPLUNC1: human SPLUNC1 (SEQ ID NO:1), 256 amino acid secreted PLUNC family protein; rSPLUNC1 is the purified V5/6His-tagged recombinant form (protein, listed as Homo sapiens)
chain: MFQTGGLIVFYGLLAQTMAQFGGLPVPLDQTLPLNVNPALPLSPTGLAGSLTNALSNGLLSGGLLGILENLPLLDILKPGGGTSGGLLGGLLGKVTSVIPGLNNIIDIKVTDPQLLELGLVQSPDGHRLYVTIPLGIKLQVNTPLVGASLLRLAVKLDITAEILAVRDKQERIHLVLGDCTHSPGSLQISLLDGLGPLPIQGLLDSLTGILNKVLPELVQGNVCPLVNEVLRGLDITLVHDIVNMLIHGLQFVIKV
modifications: V5/6His tag in recombinant form
notes: rSPLUNC1 is the purified V5/6His-tagged recombinant form
  α and γ ENaC cleavage by CAP2: only full-length α and γ ENaC subunits could be observed

— patent US9127040B2, “Regulation of sodium channels by PLUNC proteins” (The University of North Carolina at Chapel Hill, priority 2011, dated 2015)
